Source: publication doi:10.1101/2025.04.09.647960

Molecular target: WT myostimulin (human C1orf54, residues 17-131) (human) (UniProt Q8WWF1)
Assay: RP-HPLC-MS

stoichiometry N: 2
Substance: WT myostimulin (human C1orf54, residues 17-131) (from UniProt Q8WWF1 17-131) (natural protein)
